From US20250066490A1 (PROFOUNDBIO US, published 2025)

T1: human CD70 expressed on the cell surface of tumor cell lines (human, UniProt P32970 1-193)
T1 construct: whole, on cells
T1 sequence (looked up): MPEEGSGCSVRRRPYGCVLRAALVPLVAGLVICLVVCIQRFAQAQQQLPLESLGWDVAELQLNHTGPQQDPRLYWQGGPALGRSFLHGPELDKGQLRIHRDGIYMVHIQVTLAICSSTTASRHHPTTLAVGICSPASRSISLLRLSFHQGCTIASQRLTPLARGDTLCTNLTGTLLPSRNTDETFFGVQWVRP

T2: human CD70 recombinant protein (human, UniProt P32970 39-193, limits assumed)
T2 construct: May be the same reagent as ACRO CDL-H5246; also called CD70 protein
T2 sequence (looked up): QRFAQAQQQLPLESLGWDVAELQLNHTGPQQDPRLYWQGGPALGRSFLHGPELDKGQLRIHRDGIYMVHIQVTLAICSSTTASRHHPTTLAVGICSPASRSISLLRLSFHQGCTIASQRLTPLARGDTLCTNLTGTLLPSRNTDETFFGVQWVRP

T3: human CD70 extra-cellular domain (ECD) linked to His tag (human, UniProt P32970 39-193)
T3 construct: extracellular domain; also called Hu CD70; HU CD70; not shown: His tag
T3 sequence (looked up): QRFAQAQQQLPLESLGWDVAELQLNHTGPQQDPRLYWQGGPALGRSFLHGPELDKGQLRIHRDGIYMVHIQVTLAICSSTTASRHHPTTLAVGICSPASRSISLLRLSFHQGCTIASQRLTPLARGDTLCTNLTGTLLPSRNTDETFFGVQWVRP

T4: CD70 ECD (antigen immobilized on the CM5 chip) (UniProt P32970 39-193)
T4 construct: extracellular domain; also called CD70 antigen
T4 sequence (looked up): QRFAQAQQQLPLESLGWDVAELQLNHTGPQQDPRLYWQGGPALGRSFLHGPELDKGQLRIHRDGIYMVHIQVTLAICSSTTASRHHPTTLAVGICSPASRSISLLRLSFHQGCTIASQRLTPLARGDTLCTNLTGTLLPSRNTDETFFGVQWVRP

T5: cynomolgus CD70 recombinant protein (cynomolgus, UniProt A0A2K5WTU9 39-190)
T5 construct: also called cyno-antigen; cynomolgus CD70 protein
T5 sequence: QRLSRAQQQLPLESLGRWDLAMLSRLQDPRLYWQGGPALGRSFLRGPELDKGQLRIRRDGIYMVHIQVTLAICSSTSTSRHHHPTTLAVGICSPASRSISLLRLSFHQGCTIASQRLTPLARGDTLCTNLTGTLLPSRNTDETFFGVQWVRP


Experiments:
[1] = biological target: T1, human CD70 expressed on the cell …; test: flow cytometry on DBTRG-05MG cells, PE anti-human Fc, MFI; same fit as Table 6, which prints it in nM
Method: (§1) The lead antibodies were tested for binding to renal carcinoma cells and glioblastoma cells expressing CD70 on the cell surface by flow cytometry. […] U251 cells were cultured with MEM medium containing of 10% FBS and 1% NEAA+1 mM sodium pyruvate. DBTRG-05MG cells were cultured with DMEM medium (Gibco, Cat #C11995500BT) containing of 10% FBS. Each of the lead antibodies and the controls were incubated for 30 mins with the different cell lines (3×10⁵ cells per well) in 0.2 ml FACS buffer (1×PBS with 0.1% BSA) at 4° C. Then, the cells were pelleted, washed, and incubated at 4° C. for 30 mins with 100 μl of 1:200 diluted PE-conjugated anti human Fc (Abcam, Ab98596) in FACS buffer. The cells were pelleted again, washed with PBS, resuspended in FACS buffer and analyzed by flow cytometer (Beckman, CytoFLEX).
(§2) Antibodies 2H8 and 2D2 had slightly higher binding ability to the cell lines than that of antibody 69A7.

[2] = biological target: T2, human CD70 recombinant protein; test: ELISA, IgG titrated on coated human CD70 recombinant protein (2 µg/ml), anti-human Fc-HRP, OD450
Method: (§3) The binding specificity of the CD70 antibodies was tested by ELISA according to a standard protocol. Briefly, 96-well micro-plates were coated with 2 μg/ml of human or cynomolgus CD70 recombinant protein in PBS at 100 μl per well and incubated overnight at 4° C. The plates were washed twice with TBS+0.5% Tween20. 200 μL of blocking buffer (2% BSA in PBS) was added to each well, and the plates were incubated at 37° C. for 2 hours. The plates were washed using the wash buffer mentioned above. Serially diluted antibodies were added to the ELISA plates using 100 μl per well, and the plates were incubated for 1 hour at room temperature. Then plates were washed 3 times. HRP conjugated anti-human Fc antibody solution (Sigma, I18885-2ML, diluted with blocking buffer) was added to the plates using 100 μl per well. The plates were incubated at room temperature for 1 hour and then washed 3 times. Then the TMB solution was added to plates using 100 μl per well and the plates were placed at RT for 5-15 mins. Then the stop solution (2M H2SO4) was added using 50 μl per well. The absorbance was measured at A450 and A630.

[3] = biological target: T1, human CD70 expressed on the cell …; test: flow cytometry on DBTRG-05MG cells
Method: as §1, §2

[4] = biological target: T1, human CD70 expressed on the cell …; test: flow cytometry on U251 cells, PE anti-human Fc, MFI; same fit as Table 6, which prints it in nM
Method: as §1, §2

[5] = biological target: T1, human CD70 expressed on the cell …; test: flow cytometry on Caki-1 cells, PE anti-human Fc, MFI; same fit as Table 6, which prints it in nM
Method: as §1, §2

[6] = biological target: T1, human CD70 expressed on the cell …; test: flow cytometry on Caki-1 cells
Method: as §1, §2

[7] = biological target: T3, human CD70 extra-cellular domain (ECD) …; test: BLI (Octet RED), antibody on anti-human Fc tips, CD70 ECD-His at 100 nM
Method: Recombinant proteins consisting of human, rat, or mouse CD70 extra-cellular domain (ECD) linked to His tag was purchased (from ACRO systems). 69A7 and 2E7 (20 nM) were immobilized on anti-human IgG Fc biosensor tips (ForteBio). Binding assays using one concentration (100 nM) of recombinant protein in solution were performed using Octet RED (ForteBio). Association time was set at 180s and dissociation time was set at 300s. Binding affinity was calculated using ForteBio Data Acquisition 6.3 software. Affinity was derived by fitting the kinetic data to a 1:1 Langmuir binding model utilizing global fitting algorithms. […] 2E7 had no cross-reactivity to rat or mouse CD70 (Table 10).

[8] = biological target: T1, human CD70 expressed on the cell …; test: flow cytometry on 786-O cells
Method: as §1, §2

[9] = biological target: T1, human CD70 expressed on the cell …; test: flow cytometry on 786-O cells, PE anti-human Fc, MFI; same fit as Table 6, which prints it in nM
Method: as §1, §2

[10] = biological target: T1, human CD70 expressed on the cell …; test: flow cytometry on U251 cells
Method: as §1, §2

[11] = biological target: T4, CD70 ECD (antigen immobilized on the …); test: SPR (Biacore T200), CD70 ECD on CM5 chip, IgG as analyte
Method: (§4) The immobilization of antigen CD70 ECD was performed at 25° C. with HBS-EP as the running buffer. Sensor chip surface of flow cells 1, 4 were activated by freshly mixed 50 mmol/L N-Hydroxy succinimide (NHS) and 200 mmol/L 1-ethyl-3-(3-dimethylaminopropyl) carbodiimide hydrochloride (EDC) for 420s (10 μL/min). Afterwards, CD70 antigen diluted in 10 mmol/L NaAC (pH 4.5) was injected into flow cell 4 to achieve conjugation of the appropriate Response Unit, while flow cell 1 was set as a blank. After the amine coupling reaction, the remaining active coupling sites on chip surface were blocked by 420s injection of 1 mol/L ethanolamine hydrochloride.
(§5) The assay was performed at 25° C. and the running buffer was HBS-EP. Diluted antibodies were injected over the surface of flow cells 1 and 4 during the association phase, followed by injecting running buffer as the dissociation phase. All the data were processed using Biacore T200 Evaluation software version 3.1. Flow cell 1 and a blank injection of buffer in each cycle were used as a double reference for Response Units subtraction. Kinetic data of the interaction between the antibodies and CD70 antigen were obtained through affinity measurement.

[12] = biological target: T5, cynomolgus CD70 recombinant protein; test: ELISA, IgG titrated on coated cynomolgus CD70 recombinant protein (2 µg/ml), anti-human Fc-HRP, OD450
Method: as §3

[13] = biological target: T1, human CD70 expressed on the cell …; test: cell-based or functional assay
[14] = biological target: T4, CD70 ECD (antigen immobilized on the …); test: SPR (Biacore T200), CD70 ECD on CM5 chip; lower end tied to 2D2 by the KD values of Table 8
Method: as §4, §5

EC50 [1] [µg/mL] | EC50 [2] [µg/mL] | EC50 [3] [nM] | EC50 [4] [µg/mL] | EC50 [5] [µg/mL] | EC50 [6] [nM] | Kd [7] [nM] | koff [7] [s⁻¹] | kon [7] [M⁻¹ s⁻¹] | EC50 [8] [nM] | EC50 [9] [µg/mL] | EC50 [10] [nM] | Kd [11] [nM] | koff [11] [s⁻¹] | kon [11] [M⁻¹ s⁻¹] | EC50 [12] [µg/mL] | Internalization rate (%) on 786-O [13] [%] | Internalization rate (%) on Caki-1 [13] [%] | fold improved affinity against parent antibody 69A7 [14] [fold] | Binder
– | 9.1 | 494 | – | – | 284 | – | – | – | 142 | 21.3 | – | – | – | – | – | 49 | 20 | – | 2A4, full IgG (antibody, V domains shown) VH: QVQLQESGPGLVKPSETLSLTCTVSGGSVSSDYYYWSWIRQPPGKGLEWLGYIYYSGSTNYNPSLKSRVTISVDTSKNQFSLKLRSVTTADTAVYYCARGDGDYGGNVFPYWGQGTLVTVSS VL: EIVLTQSPATLSLSPGERATLSCRASQSVSSYLAWYQQKPGQAPRLLIFDASNRATGIPARFSGSGSGTDFTLTISSLEPEDFAVYYCQQRSNWPLTFGGGTKVEIK
2.06 | 0.087 | 13.7 | 1.11 | 0.896 | 5.98 | – | – | – | 5.62 | 0.842 | 7.38 | 89.6 | 0.00105 | 11700 | 0.00424 | 76 | 53 | 3 to 8 | 2D2, full IgG (antibody, V domains shown) VH: QVQLQESGPGLVKPSETLSLTCTVSGGSVSSDYYYWSWIRQPPGKGLEWLGYIYYSGSTNYNPSLKSRVTISVDTSKNQFSLKLRSVTTADTAVYYCARGDGDYGGNCFDYWGQGTLVTVSS VL: EIVLTQSPATLSLSPGERATLSCRASQSVSSYLAWYQQKPGQAPRLLIFDASNRATGIPARFSGSGSGTDFTLTISSLEPEDFAVYYCQQRLKFPLTFGGGTKVEIK

The next lines start with the binder.

Binder | EC50 [1] [µg/mL] | EC50 [2] [µg/mL] | EC50 [3] [nM] | EC50 [4] [µg/mL] | EC50 [5] [µg/mL] | EC50 [6] [nM] | Kd [7] [nM] | koff [7] [s⁻¹] | kon [7] [M⁻¹ s⁻¹] | EC50 [8] [nM] | EC50 [9] [µg/mL] | EC50 [10] [nM] | Kd [11] [nM] | koff [11] [s⁻¹] | kon [11] [M⁻¹ s⁻¹] | EC50 [12] [µg/mL] | Internalization rate (%) on 786-O [13] [%] | Internalization rate (%) on Caki-1 [13] [%] | fold improved affinity against parent antibody 69A7 [14] [fold]
69A7 (parent antibody), full IgG (antibody, V domains shown, also called parent antibody 69A7) VH: QVQLQESGPGLVKPSETLSLTCTVSGGSVSSDYYYWSWIRQPPGKGLEWLGYIYYSGSTNYNPSLKSRVTISVDTSKNQFSLKLRSVTTADTAVYYCARGDGDYGGNCFDYWGQGTLVTVSS VL: EIVLTQSPATLSLSPGERATLSCRASQSVSSYLAWYQQKPGQAPRLLIFDASNRATGIPARFSGSGSGTDFTLTISSLEPEDFAVYYCQQRSNWPLTFGGGTKVEIK | 1.7 | 0.278 | 11.3 | 1.22 | 1.48 | 9.89 | 2.89 | 0.000978 | 339000 | 6.49 | 0.973 | 8.11 | 313 | 0.00198 | 6330 | 0.0104 | 64 | 27 | –
1H8, full IgG (antibody, V domains shown) VH: QVQLQESGPGLVKPSETLSLTCTVSGGSVSSDYYYWSWIRQPPGKGLEWLGYIYYSGSTNYNPSLKSRVTISVDTSKNQFSLKLRSVTTADTAVYYCARGDGDFMGVCFDYWGQGTLVTVSS VL: EIVLTQSPATLSLSPGERATLSCRASQSVSSYLAWYQQKPGQAPRLLIFDASNRATGIPARFSGSGSGTDFTLTISSLEPEDFAVYYCQQRSNWPLTFGGGTKVEIK | 1.44 | 0.0595 | 9.6 | 1.2 | 0.847 | 5.65 | – | – | – | 5.12 | 0.767 | 7.99 | 43.7 | 0.00112 | 25600 | 0.00326 | 76 | 62 | –
1F6 (Vorsetuzumab), reference antibody, full IgG (antibody, V domains shown, also called h1F6; h1 F6) VH: QVQLVQSGAEVKKPGASVKVSCKASGYTFTNYGMNWVRQAPGQGLKWMGWINTYTGEPTYADAFKGRVTMTRDTSISTAYMELSRLRSDDTAVYYCARDYGDYGMDYWGQGTTVTVSS VL: DIVMTQSPDSLAVSLGERATINCRASKSVSTSGYSFMHWYQQKPGQPPKLLIYLASNLESGVPDRFSGSGSGTDFTLTISSLQAEDVAVYYCQHSREVPWTFGQGTKVEIK | – | – | – | – | – | – | – | – | – | – | – | – | 52.3 | 0.00236 | 45100 | 0.00284 | – | – | –
